Patent publication US20060057665A1, “Galectin-14 therapeutic molecule and uses thereof” (The University of Melbourne, priority 2001, published 2006)

How the values were obtained:
rabbit erythrocytes = experiment: Hemagglutination assay on trypsin-treated, glutaraldehyde fixed rabbit erythrocytes; type: cell-based; conditions: for stability of agglutination activity upon storage: even in the presence of reducing agents
Protocol: Trypsin-treated, glutaraldehyde fixed rabbit erythrocytes were prepared and tested in an agglutination assay according to the method of Nowak et al. (Nowak et al. (1976) supra). Agglutination assays were performed in 96-well V-shaped microtiter plates with serial 2-fold dilutions of samples in 25 μl of DES (0.15 M NaCl, 2 mM EDTA, 2 mM dithiothreitol), 50 μl of 0.5% (w/v) BSA in 0.15 M NaCl and 25 μl of a 4% suspension of rabbit erythrocytes. The plates were shaken vigorously for 30 s, and agglutination was read after the plates had stood at room temperature for 1 h. Agglutinated erythrocytes formed a “mat” on the bottom of the well. For assessment of the inhibitory effects of saccharides, lactose, galactose, and N-acetyl-glucosamine were serially diluted in 25 μl of 0.15 M NaCl prior to the addition of recombinant protein in DES, 25 μl of 1% (w/v) BSA in 0.15 M NaCl, and 4% erythrocytes in PBS. The minimum concentration of GST-galectin-14 that gave mat formation (0.28 μM) was used in the saccharide inhibition assay. For assessment of the effects of antibody on GST-galectin-14 hemagglutination, ascites and supernatants from monoclonal antibodies and polyclonal rabbit sera all raised to recombinant galectin-14 were serially diluted in 25 μl of 0.15 M NaCl prior to the addition of recombinant protein in DES, 25 μl of 1% (w/v) BSA in 0.15 M NaCl, and 4% erythrocytes in PBS. A different batch of GST-galectin-14, which produced mat formation at a minimum concentration of 0.059 μM, was used at 0.059 μM and 0.042 μM to measure both inhibition and potentiation of agglutination by antibodies.

[1] = molecular target: T1, laminin from Engelbreth-Holm-Swarm murine sarcoma (Mus musculus, UniProt P02468+P02469+P19137); experiment: Solid-phase laminin binding assay; conditions: serial dilutions; detected with anti-GST HRP antibody, absorbance 450 nm
T1 construct: laminin from Engelbreth-Holm-Swarm murine sarcoma (Sigma); purchased Sigma; host or cells: Engelbreth-Holm-Swarm murine sarcoma (tissue-derived)
Protocol: FIG. 17 is an image of the saturation binding of GST-galectin-14 fusion protein to immobilised laminin. Laminin binding of GST-galectin-14 fusion protein was assayed using a solid-phase binding assay in a 96-well microtitre plate. Serial dilutions of GST-galectin-14 (▪) and GST (▴) were added to microtitre wells containing laminin. 0.3 M Lactose was added to GST-galectin-14 to inhibit binding (◯). The level of bound protein was monitored by the binding of rabbit anti-GST HRP antibody developed with TMB substrate and detected by a change in absorbance at 450 nm.
Laminin binding activity was measured according to the method of Mazurek et al. with some modification. Briefly, the wells of a 96-well microtitre plate were coated with laminin from Engelbreth-Holm-Swarm murine sarcoma (Sigma) at 1 μg/100 μl of carbonate coating buffer (15 mM Na2CO3, 35 mM NaHCO3, pH 9.6) per well overnight at 4° C. Non-specific binding sites were blocked with 200 μl of 0.5% Tween 20 in PBS for 1 h. Plates were washed 3 times in 0.05% Tween 20 PBS and incubated with 50 μl serial dilutions of GST-galectin-14 or GST alone, diluted in 0.5% Tween 20 PBS, for 1.5 h at 37° C. Control wells contained 0.3 M lactose. […] The reaction was terminated with 100 μl 2 M sulphuric acid and the colour change monitored using a dual wavelength mode plate reader (Bio-tek instruments) at 450 nm, ref 690 nm.

[2] = SDS-PAGE and Western blot analysis of recombinant galectin-14 after storage; type: physicochemical; conditions: storage at high concentrations; reducing conditions
Protocol: FIG. 10 is an image of SDS-PAGE and Western blot analysis of recombinant galectin-14 and endogenous proteins. […] The arrow points to the position of monomeric galectin-14. All samples were run under reducing conditions. […] Membranes were incubated with mAb supernatant for 2 h at room temperature, followed by incubation with secondary antibody, horseradish peroxidase-conjugated rabbit anti-mouse Ig (Dako, Carpinteria, Calif.), for at least 1 h at room temperature. Signals were detected using 1.5 mM 3,3′-diaminobenzidine tetrahydrochloride (DAB; Sigma), or ECL (Amersham Pharmacia Biotech).

| Molecule | maximum concentration which did not induce agglutination (rabbit erythrocytes; batch used in the antibody potentiation assay) [µM] | minimum concentration that gave mat formation (agglutination) (rabbit erythrocytes; batch used in the saccharide inhibition assay) [µM] | minimum concentration that produced mat formation (agglutination) (rabbit erythrocytes; different batch, used in the antibody assays) [µM] | stability of agglutination activity upon storage (rabbit erythrocytes) | binding to immobilised laminin [1] | minimum concentration exhibiting agglutination activity on rabbit erythrocytes (rabbit erythrocytes; fresh cleaved and purified recombinant protein) [µM] | self-aggregation after storage [2] |
| --- | --- | --- | --- | --- | --- | --- | --- |
| GST-galectin-14: Recombinant galectin-14 expressed in E. coli BL-21 as a GST fusion protein (pGEX-6P-2) (protein, left off: a dimerising Fc or GST) MQSESGHEGDEELAFRDTQPPYINLPIPFTGRIEGGLQDGHKVTVMGRVLSTDENRFQVDFQMGISDTNNVAFHFNPRFEGSGYVVCNTMQLGNWGPEEKKMQMPFQKGSLFEICFKVDSSSFKVTVNGSIFLDYAHRLPFEQVNAISIGGCVHVSYISFQI | 0.042 | 0.28 | 0.059 | did not deteriorate upon storage | bound to laminin in a dose dependent manner | – | – |
| galectin-14: Ovine proto-type galectin, amino acid sequence <400>2; recombinant form cleaved from GST fusion, with 5 additional N-terminal amino acids (protein) MQSESGHEGDEELAFRDTQPPYINLPIPFTGRIEGGLQDGHKVTVMGRVLSTDENRFQVDFQMGISDTNNVAFHFNPRFEGSGYVVCNTMQLGNWGPEEKKMQMPFQKGSLFEICFKVDSSSFKVTVNGSIFLDYAHRLPFEQVNAISIGGCVHVSYISFQI | – | – | – | rapidly lost upon storage | – | 0.16 | often self-aggregates into oligomers |
